Assay results reported in publication PMC3351150.

Biological target: controller protein C.Esp1396I
Assay: crystal structure

stoichiometry N: 2
Substance: controller protein C.Esp1396I (natural protein)
